According to patent US20240025949A1, “Beta-Arrestin Effectors and Compositions and Methods of Use Thereof” (Trevena, Inc., priority 2021, published 2024):

Experiments:
[1] = target: human angiotensin 2 type 1 receptor (human) (UniProt P30556); assay: cell-based or functional assay
[2] = target: rat angiotensin 2 type 1 receptor (rat) (UniProt P25095); assay: cell-based or functional assay
Sequence of rat angiotensin 2 type 1 receptor (rat) (P25095 whole entry): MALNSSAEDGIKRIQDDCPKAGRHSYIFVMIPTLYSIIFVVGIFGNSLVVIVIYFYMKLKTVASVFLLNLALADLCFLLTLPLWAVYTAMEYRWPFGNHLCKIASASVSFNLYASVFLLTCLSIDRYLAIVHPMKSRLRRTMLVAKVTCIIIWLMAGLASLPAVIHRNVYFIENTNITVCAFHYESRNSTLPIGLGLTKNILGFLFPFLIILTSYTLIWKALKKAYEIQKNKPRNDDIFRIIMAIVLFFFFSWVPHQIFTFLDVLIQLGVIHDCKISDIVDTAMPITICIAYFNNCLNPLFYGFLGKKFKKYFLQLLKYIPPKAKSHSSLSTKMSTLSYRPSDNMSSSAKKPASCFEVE

Sequence of human angiotensin 2 type 1 receptor (human) (P30556 whole entry): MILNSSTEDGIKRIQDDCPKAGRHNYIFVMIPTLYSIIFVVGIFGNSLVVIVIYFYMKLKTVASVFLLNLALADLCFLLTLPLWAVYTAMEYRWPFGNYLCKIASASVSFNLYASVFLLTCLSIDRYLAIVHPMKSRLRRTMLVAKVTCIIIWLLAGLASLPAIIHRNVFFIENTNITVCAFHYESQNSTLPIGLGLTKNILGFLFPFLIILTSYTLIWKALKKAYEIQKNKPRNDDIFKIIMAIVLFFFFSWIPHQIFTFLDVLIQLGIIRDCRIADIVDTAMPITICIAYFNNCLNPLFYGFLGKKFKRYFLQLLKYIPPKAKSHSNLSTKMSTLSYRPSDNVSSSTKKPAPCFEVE

SEQ ID NO: 65 (N-Me-Asp-Arg-Val-Tyr-Phe-His-Pro-NH2) (peptide)
IP One EC50 [1]: > 10000 nM | b-arrestin2 EC50 [1]: 2000 nM | b-arrestin2 Max [1]: 37.8% | IP One EC50 [2]: > 10000 nM | b-arrestin2 EC50 [2]: 2800 nM | b-arrestin2 Max [2]: 67.3%

SEQ ID NO: 30 (Sar-Arg-Val-Tyr-OMTh-His-Pro-Ala-OH) (peptide)
IP One EC50 [1]: > 10000 nM | b-arrestin2 EC50 [1]: 9.2 nM | b-arrestin2 Max [1]: 68.2% | IP One EC50 [2]: > 10000 nM | b-arrestin2 EC50 [2]: 8.2 nM | b-arrestin2 Max [2]: 80.4%

SEQ ID NO: 8 (Sar-Arg-Val-Tyr-Val-His-Pro-Ala-NH2) (peptide)
IP One EC50 [1]: > 10000 nM | b-arrestin2 EC50 [1]: 210 nM | b-arrestin2 Max [1]: 36.9% | IP One EC50 [2]: 35 nM | IP One Max [2]: 11.3% | b-arrestin2 EC50 [2]: 200 nM | b-arrestin2 Max [2]: 41.8%

SEQ ID NO: 84 (Sar-Arg-Val-Tyr-OMTh-His-Pro-D-Ala-OH) (peptide)
IP One EC50 [1]: > 10000 nM | b-arrestin2 EC50 [1]: 32 nM | b-arrestin2 Max [1]: 50.5% | IP One EC50 [2]: > 10000 nM | b-arrestin2 EC50 [2]: 16 nM | b-arrestin2 Max [2]: 80.6%

SEQ ID NO: 9 (Sar-Arg-Val-Tyr-Ile-His-Pro-Ala-OH) (peptide)
IP One Max [2]: 9.5% | b-arrestin2 Max [2]: 74%

SEQ ID NO: 32 (Me2G-Arg-Val-Tyr-Ile-His-Pro-Ala-OH) (peptide)
b-arrestin2 EC50 [1]: 79 nM | b-arrestin2 Max [1]: 55.6% | IP One EC50 [2]: 24 nM | IP One Max [2]: 6.8% | b-arrestin2 EC50 [2]: 43 nM | b-arrestin2 Max [2]: 80.2%

SEQ ID NO: 82 (NM-D-Ala-Arg-Val-Tyr-Ile-His-Pro-D-Ala-OH) (peptide)
IP One EC50 [1]: > 10000 nM | b-arrestin2 EC50 [1]: 320 nM | b-arrestin2 Max [1]: 38.3% | IP One EC50 [2]: > 10000 nM | b-arrestin2 EC50 [2]: 130 nM | b-arrestin2 Max [2]: 60.6%

SEQ ID NO: 25 (Asp-Arg-Val-Tyr-Ile-His-Pro-Ala-OH) (peptide)
b-arrestin2 Max [1]: 57.9% | IP One Max [2]: 14.1% | b-arrestin2 Max [2]: 77%

SEQ ID NO: 5 (Sar-Arg-Val-Gly-Val-His-Pro-Gly-OH) (peptide)
IP One EC50 [1]: 65 nM | IP One Max [1]: 18.1% | b-arrestin2 EC50 [1]: 1600 nM | b-arrestin2 Max [1]: 39.4% | IP One EC50 [2]: 96 nM | IP One Max [2]: 24.8% | b-arrestin2 EC50 [2]: 1900 nM | b-arrestin2 Max [2]: 61.7%

SEQ ID NO: 64 (Glu-Arg-Val-Tyr-Phe-His-Pro-NH2) (peptide)
IP One EC50 [1]: > 10000 nM | b-arrestin2 EC50 [1]: 1200 nM | b-arrestin2 Max [1]: 20.4% | IP One EC50 [2]: > 10000 nM | b-arrestin2 EC50 [2]: 870 nM | b-arrestin2 Max [2]: 26.9%

SEQ ID NO: 2 (Sar-Arg-Val-Ile-Ile-His-Pro-Ile-NH2) (peptide)
b-arrestin2 Max [1]: 24.9% | IP One EC50 [2]: 360 nM | IP One Max [2]: 33.8%

SEQ ID NO: 83 (Sar-Arg-Val-Tyr-NVA-His-Pro-D-Ala-OH) (peptide)
IP One EC50 [1]: > 10000 nM | b-arrestin2 EC50 [1]: 200 nM | b-arrestin2 Max [1]: 34.3% | IP One EC50 [2]: > 10000 nM | b-arrestin2 EC50 [2]: 50 nM | b-arrestin2 Max [2]: 70.2%

SEQ ID NO: 6 (Sar-Arg-Val-Gly-Val-His-Pro-Gly-NH2) (peptide)
IP One EC50 [1]: 110 nM | IP One Max [1]: 14.1% | b-arrestin2 EC50 [1]: 920 nM | b-arrestin2 Max [1]: 12.1% | IP One EC50 [2]: 59 nM | IP One Max [2]: 21.9% | b-arrestin2 EC50 [2]: > 10000 nM

SEQ ID NO: 3 (Sar-Arg-Val-Ile-Val-His-Pro-Ile-OH) (peptide)
IP One EC50 [1]: > 10000 nM | b-arrestin2 EC50 [1]: 450 nM | b-arrestin2 Max [1]: 36.5% | IP One EC50 [2]: 41 nM | IP One Max [2]: 19.6% | b-arrestin2 EC50 [2]: 120 nM | b-arrestin2 Max [2]: 67.1%

SEQ ID NO: 27 (Sar-Arg-Val-Tyr-Ile-His-Pro-D-Ala-OH) (peptide)
IP One EC50 [2]: > 10000 nM | b-arrestin2 EC50 [2]: 16 nM | b-arrestin2 Max [2]: 84.2%

SEQ ID NO: 10 (Sar-Arg-Val-Tyr-Ile-His-Pro-Ala-NH2) (peptide)
IP One Max [2]: 13.3% | b-arrestin2 Max [2]: 60.3%
